Source: article PMC13152641

Columns and labels:
CICmin18 WT [1] = target: T1, CICmin18 WT (human, UniProt Q96RK0-2;Q96RK0-2); assay: EMSA
CICmin31 WT (IVT) = CICmin31 WT (IVT) (human, UniProt Q96RK0-2 188-294+1457-1527, internal_change); assay: EMSA
CICmin18 WT [2] = target: T1, CICmin18 WT; assay: X-ray crystallography 2.95 A
CICmin31 R201W (IVT) = CICmin31 R201W (IVT) (human, UniProt Q96RK0-2 188-294+1457-1527, R201W;internal_change); assay: EMSA
CICmin18 R1515H = CICmin18 R1515H (human, UniProt Q96RK0-2 188-280+=F+1457-1527, R1515H;internal_change); assay: MST
CICmin18 R1512H = CICmin18 R1512H (human, UniProt Q96RK0-2 188-280+=F+1457-1527, R1512H;internal_change); assay: MST
CICmin18 M1519D = CICmin18 M1519D (human, UniProt Q96RK0-2 188-280+=F+1457-1527, M1519D;internal_change); assay: MST
CICmin18 WT [3] = target: T1, CICmin18 WT; assay: MST
CICmin31 M1519D = CICmin31 M1519D (human, UniProt Q96RK0-2 188-294+1457-1527, M1519D;internal_change); assay: MST
CICmin31 WT = CICmin31 WT (human, UniProt Q96RK0-2 188-294+1457-1527, internal_change); assay: MST
CICmin31 R201W = CICmin31 R201W (human, UniProt Q96RK0-2;Q96RK0-2, R201W); assay: MST
CICmin31 R1515H = CICmin31 R1515H (human, UniProt Q96RK0-2 188-294+1457-1527, R1515H;internal_change); assay: MST
CICmin31 R215W = CICmin31 R215W (human, UniProt Q96RK0-2 188-294+1457-1527, R215W;internal_change); assay: MST

B1: random-site 30-mer (EMSA) (dsDNA)
DNA 1: GGCGTTTTTTAGTCGCTGCAAACGTCCTCC
DNA 2: GGAGGACGTTTGCAGCGACTAAAAAACGCC
B1: no binding (CICmin18 WT [1]); no binding (CICmin31 WT (IVT)).

B2: ETV5 18-mer (crystal) (dsDNA)
DNA 1: GGTTATGAATGAAAAACC
DNA 2: GGTTTTTCATTCATAACC
B2: binds (CICmin18 WT [2]).

B3: ETV5 30-mer (EMSA) (dsDNA)
DNA 1: GGCGTTTTTTATGAATGAAAAACGTCCTCC
DNA 2: GGAGGACGTTTTTCATTCATAAAAAACGCC
B3: binds (CICmin31 R201W (IVT)).

B4: ETV5 30-mer (MST) (dsDNA)
DNA 1: B3 DNA 1
DNA 2: B3 DNA 2
B4 was tested, and the “apparent K (half saturation)” value (CICmin18 R1515H) was 16.7 nM, the “apparent K (half saturation)” value (CICmin18 R1512H) was 14.6 nM and the “apparent K (half saturation)” value (CICmin18 M1519D) was 50.3 nM. For the same binder, the “apparent K (half saturation)” value (CICmin18 WT [3]) was 15.5 nM, the “apparent K (half saturation)” value (CICmin31 M1519D) was 32.2 nM and the “apparent K (half saturation)” value (CICmin31 WT) was 226 nM. The “apparent K (half saturation)” value (CICmin31 R201W) was 171 nM, the “apparent K (half saturation)” value (CICmin31 R1515H) was 1430 nM and the “apparent K (half saturation)” value (CICmin31 R215W) was 151 nM.
